This series concerns the molecule itself. Nature of the series: cross-linking; 8 ug protein in PBS at room temperature, 25 mM glutaraldehyde for 5 min, quenched with 0.2 M Tris-HCl pH 7.5; 12.5% SDS-PAGE, Coomassie staining.

B1: sponge NmeGp1Sd protein (Suberites domuncula Group I Nme), recombinant (natural protein, UniProt Q5DIW9 1-151, looked up)
chain: MTTERTYIMIKPDGVQRGLMGDIIKRFEQKGFKMVAMKFMQPSEKLLSEHYADLSKKPFFPGLVKFMATSPVCCMVWEGQGAVATGRQMLGETDPAKSKPGTIRGDFCIHIGRNICHGSDSVESANKEIALWFKPEELVDWTPTEQQWIYE
notes: NmeGp1Sd (formerly Nm23-SD1), Group I Nme / nucleoside diphosphate kinase of the marine sponge Suberites domuncula; cDNA cloned into pET15b (NdeI/BamHI) with primers from the ATG start codon to the stop codon; Cloned downstream of the thrombin site of pET15b; residues of the vector may remain at the N-terminus after cleavage; also called Nm23-SD1; not shown: His6, N-terminal, cleaved
One may read the stoichiometry N as the number of molecules, sites or subunits per partner or assembly. With B1, the “stoichiometry N” value is 6.

The values above are taken from article PMC3078890, “Sponge non-metastatic Group I Nme gene/protein - structure and function is conserved from sponges to humans” (BMC Evolutionary Biology, 2011).
